Measured values taken from patent publication US20050181479A1 (AstraZeneca / MedImmune, published 2005).

Target: T1, human EphA2-Fc (human, UniProt P29317 25-534, limits assumed, biotinylated in the capture ELISA (sites not given))
T1 construct: also called biotinylated human EphA2-Fc; human receptor tyrosine kinase EphA2; not shown: Fc portion; species, isotype and any linker are not described
Assay: EphA2-specific capture ELISA: Fab from E. coli samples captured on anti-human Fab or anti-Fd, detected with biotinylated human EphA2-Fc
Procedure: Capture ELISA: An EphA2-specific capture ELISA was carried out as follows: briefly, individual wells of a 96-well Maxisorp Immunoplate were coated with 20 or 2000 ng of a goat anti-human Fab antibody (Cappel, Calif.) or of a sheep anti-human Fd (BioDesign, ME), blocked with 3% BSA/PBS for 2 h at 37° C. and then incubated with 75 μl of the various samples (supernatants, periplasmic extracts and whole cell extracts of G5 Fab, 12G3 Fab, irrelevant Fab and variants thereof) for 2 hours at room temperature. 300 ng/well of biotinylated human EphA2-Fc was then added for 1.5 hours at room temperature. This was followed by incubation with a neutravidin-horseradish peroxidase (HRP) conjugate for 40 min at room temperature. HRP activity was detected with tetra methyl benzidine (TMB) substrate and the reaction quenched with 0.2 M H₂SO₄. Plates were read at 450 nm.

T1 sequence (P29317 25-534 limits assumed): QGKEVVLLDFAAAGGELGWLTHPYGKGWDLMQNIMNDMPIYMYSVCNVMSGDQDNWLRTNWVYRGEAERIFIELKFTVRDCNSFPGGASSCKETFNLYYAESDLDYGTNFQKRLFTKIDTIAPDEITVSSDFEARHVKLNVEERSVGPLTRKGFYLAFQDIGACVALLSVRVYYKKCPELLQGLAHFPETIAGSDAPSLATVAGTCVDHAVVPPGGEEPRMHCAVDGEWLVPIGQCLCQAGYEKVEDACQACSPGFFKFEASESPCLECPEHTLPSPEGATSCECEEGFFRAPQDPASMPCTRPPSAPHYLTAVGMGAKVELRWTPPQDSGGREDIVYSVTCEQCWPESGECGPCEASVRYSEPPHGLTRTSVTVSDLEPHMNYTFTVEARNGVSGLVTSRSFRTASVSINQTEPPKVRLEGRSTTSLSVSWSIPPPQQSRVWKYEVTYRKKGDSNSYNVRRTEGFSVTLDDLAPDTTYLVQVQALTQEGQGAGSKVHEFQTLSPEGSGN

B1: G5 Fab (Fab, V domains shown)
VH: QMQLVQSGPEVKKPGTSVKVSCKASGFTFTDYSMNWVRQARGQRLEWIGFIRNKANDYTTEYSASVKGRVTITRDMSTSTAYMELSSLRSEDTAVYYCARYPRYHAMDSWGQGTSVTVSS
VL: DIQMTQSPSSLSASVGDRVTITCRASQSISNNLHWYQQKPGKAPKLLIKYVFQSISGVPSRFSGSGSGTDFTFTISSLQPEDFATYYCQQSNSWPLTFGGGTKVEIK
notes: Fab expressed in E. coli TG1 from an M13-based phage vector and tested as unpurified supernatant, periplasmic extract or whole cell extract; They are kept as one molecule, since the leader is not part of the mature Fab; also called mAb G5; anti-EphA2 Fab
  binding result: binds

B2: 12G3 Fab (Fab, V domains shown)
VH: QMQLVQSGPEVKKPGTSVKVSCKASGFTFDDYSMNWVRQARGQRLEWIGFIRNKANDYTTEYSASVKGRVTITRDMSTSTAYMELSSLRSEDTAVYYCARYPRHHAMDSWGQGTSVTVSS
VL: DIQMTQSPSSLSASVGDRVTITCRASQSISNNLHWYQQKPGKAPKLLIKYAFQSISGVPSRFSGSGSGTDFTFTISSLQPEDFATYYCQQANSWPLTFGGGTKVEIK
notes: Fab expressed in E. coli TG1 from an M13-based phage vector and tested as unpurified supernatant, periplasmic extract or whole cell extract; They are kept as one molecule, since the leader is not part of the mature Fab; also called mAb12G3; anti-EphA2 Fab
  binding result: binds
